Experiment in all cases: BLI
Conditions in all cases: both partners purified

Assay [1] has as its target T1, Neisseria meningitidis factor H binding protein variant 3.28 (Neisseria meningitidis, fHbp variant …, strain).
T1 construct: also called fHbp v3.28; fHbp variant 3.28
T1 chain: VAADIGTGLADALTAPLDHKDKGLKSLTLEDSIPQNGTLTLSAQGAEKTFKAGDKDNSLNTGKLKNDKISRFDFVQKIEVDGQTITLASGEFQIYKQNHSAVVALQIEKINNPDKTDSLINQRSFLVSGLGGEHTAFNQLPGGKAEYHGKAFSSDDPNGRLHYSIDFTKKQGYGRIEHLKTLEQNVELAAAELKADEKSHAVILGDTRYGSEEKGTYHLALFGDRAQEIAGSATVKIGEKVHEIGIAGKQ

In a further assay the target is T2, fHbp m000019 (Neisseria meningitidis, fHbp v1.1 …, point mutant).
T2 construct: also called Round 1 best mutant
T2 chain: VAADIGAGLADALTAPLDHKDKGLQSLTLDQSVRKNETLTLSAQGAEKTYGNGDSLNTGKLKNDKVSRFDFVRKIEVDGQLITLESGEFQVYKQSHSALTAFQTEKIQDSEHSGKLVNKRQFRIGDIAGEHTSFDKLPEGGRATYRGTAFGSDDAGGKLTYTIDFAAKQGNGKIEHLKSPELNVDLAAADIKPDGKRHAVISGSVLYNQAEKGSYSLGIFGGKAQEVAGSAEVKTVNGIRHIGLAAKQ

The target in assay [2] is T3, Neisseria meningitidis factor H binding protein variant 1.1 (Neisseria meningitidis, UniProt Q9JXV4).
T3 construct: also called fHbp v1.1; fHbp variant 1.1

A further assay has as its target T4, fHbp m002416 (Neisseria meningitidis, fHbp v3.28/v1.1 …, point mutant).
T4 construct: also called fHbp 2,416; Round 2 best mutant
T4 chain: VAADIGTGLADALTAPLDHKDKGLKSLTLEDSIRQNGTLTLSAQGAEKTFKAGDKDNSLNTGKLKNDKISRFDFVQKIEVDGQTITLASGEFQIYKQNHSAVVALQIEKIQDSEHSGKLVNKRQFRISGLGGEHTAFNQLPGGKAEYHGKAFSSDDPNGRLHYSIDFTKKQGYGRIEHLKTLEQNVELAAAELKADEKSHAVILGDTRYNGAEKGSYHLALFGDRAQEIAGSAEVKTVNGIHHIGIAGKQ

The text below walks through data of PMC12319226 (Frontiers in Bioinformatics, 2025).

B1: human mAb 1A12 (antibody, V domains shown)
VH: EVQLVQSGAELKKPGESLKISCKASGYTFTNYWVVWVRQMPGEGLEWMGSIHPRDSDARYSLSFEGRVTFSVDKSTTTAYLQWSSLKVSDSAIYYCARLSQVSGWSPWVGPWGQGTLVTVSS
VL: DIVMTQSPSSLSASVGDRVTITCRASQSISVSLNWYQQKPGKAPKVLIYAASRLQSGIPSRFSGSGSGSHFTLTISSLQPEDFATYYCQETYSDLMYTFGQGTKVEIK
notes: source: Expi293, transient transfection, purified (MabSelect SuRe, SEC)
Consider B1, for which, in assay [1], the dissociation constant Kd (in general, the equilibrium constant for the complex coming apart) lay in the range of 7 to 20 nM.

B2: human mAb 1E6 (antibody, V domains shown)
VH: EVQLVQSGAEVKKPGSSVKVSCKASGGTVIDYPITWVRQAPGQGLEWVGGFVPLFRTSNYGQKFQGRVTITADKSTSTASMELNSLTSEDTAIYYCARGDTAMGPFDYWGQGTLVTVSS
VL: SYVLTQPPSLSVAPGKTATLTCGGNNIAGKTVHWYQQRPGQAPVLVISYDSDRPSGIPERFSGSNSANTATLTISRVEAGDEADYYCQVWDRNSDHWVFGGGTKLTVL
notes: as for B1
In the case of B2, the dissociation constant (Kd) with fHbp m000019 is 0.8 nM; in assay [2], 3 to 10 nM; with fHbp m002416 it was 0.32 nM; in assay [1] it was 2 to 4 nM.

B3: human mAb 4B3 (antibody, V domains shown)
VH: QVQLVQSGGGLVKPGGSLRLSCAASGFPFSSYYMSWIRQAPGKGLEWVSDINNSGNVKEYADFVKGRLTISRDNVKNSMYLHMNSLRVEDTAVYYCARNRGRFDVWGQGTLVTVSA
VL: EIVMTQSPGTLSLSPGETATLSCRASQMISSPFLAWYQQRRGQAPRLLIYGASTRATDTPDRFRGSGSGTDFILTISRLEPEDFAVYYCQYYDDSPFTFGQGTKLEIK
notes: as for B1
B3: the Kd with fHbp m000019 is 2.4 nM; in assay [2], 1 to 5 nM; with fHbp m002416 it was 3.8 nM; in assay [1], 5 to 6 nM.

B4: chimeric antibody h12C1 (antibody, V domains shown)
VH: QVQLQESGPELVKPGASVKISCKASGYSFSDYNMSWVKQSNGKSLEWIGIIDPKYGTINYNQKFKGKATLTVDQASSTAYMQLNSLTSEDSAVYYCVRDYYGSSYFDYWGQGTTLTVSS
VL: DIVLTQSPSSIYASLGERVTLTCKASQDIHNYLNWFQQKPGKSPKTLIYRANRLVDGVPSRFSGGGSGQDYSLTISSLEFEDIGIYYCLQYDEFPPTFGGGTRLEIK
notes: also called humanized 12C1 mAb; source: Expi293, transient transfection, purified (MabSelect SuRe, SEC)
For the molecule B4, the results for the Kd (in assay [2]; in the assay with fHbp m002416) were 0.1 to 0.8 nM and 0.293 nM, respectively.
